These results are taken from patent US20150246945A1 (JAPANESE FOUNDATION FOR CANCER RESEARCH, published 2015).

Ends that are not written are not given here. * marks the point of attachment. Biotin = O=C1N[C@H]2[C@H](CS[C@H]2CCCCC(=O)*)N1 Some results are limits rather than exact numbers.

For experiment [1], the target named is T1, EpCAM, whole protein on cells (HT-29, MCF-7, 293T transfected with full-length EpCAM plasmid pkk196) or on … (UniProt P16422 24-314, limits assumed).
T1 construct: whole, on cells; Used for both cell-surface EpCAM and EpCAM carried on HT-29 exosomes; the assay field says which; also called EpCAM on HT-29; EpCAM-expressing cells
T1 sequence (looked up): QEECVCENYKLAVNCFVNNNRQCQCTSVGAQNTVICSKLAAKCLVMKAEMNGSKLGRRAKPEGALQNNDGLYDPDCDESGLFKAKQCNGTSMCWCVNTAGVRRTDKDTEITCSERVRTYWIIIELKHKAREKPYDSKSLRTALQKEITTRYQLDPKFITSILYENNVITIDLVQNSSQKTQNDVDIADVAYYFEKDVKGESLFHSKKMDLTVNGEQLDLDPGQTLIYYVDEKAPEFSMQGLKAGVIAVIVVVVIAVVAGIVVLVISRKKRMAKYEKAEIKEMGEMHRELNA
As to the kind of experiment: staining of HT-29 spheroids with FITC peptide, fluorescence microscopy. On the procedure: (§1) The HT-29 cells as EpCAM-expressing cells were cultured by spheroid culture method as follows: 4×10⁵ cells are suspended in 3 ml of D-MEM/F-12 medium (Dulbecco's Modified n Eagle Medium:Nutrient Mixture 12, 1:1 mixture) (Gibco/Life Technologies Inc.) supplemented with 20 ng/ml human EGF (Miltenyi Biotec K.K.), 20 ng/ml human […] (Miltenyi Biotec K.K.), B-27 (Gibco/Life Technologies Inc.), penicillin, and streptomycin and inoculated to EZ-Sphere®, a Petri dish of 3.5 cm in diameter coated with MPC polymer. After static culture for 72 hours, the cells were collected while the medium was suspended by pipetting. The cells were stained with the FITC-modified peptide and observed under a fluorescence microscope. The staining was carried out by adding 4 μM peptide into a McCoy's 5A medium and standing still at room temperature for 30 minutes.
When these control peptides were used at a concentration of 4 μM, no EpCAM staining was observed (data not shown).

Experiment [2] has as its target T2, purified EpCAM (extracellular domain with myc and His tags at the C terminus, expressed in HEK-293T cells) (UniProt P16422 24-265, limits assumed).
T2 construct: extracellular domain; also called epithelial cell adhesion molecule; CD326
T2 sequence (looked up): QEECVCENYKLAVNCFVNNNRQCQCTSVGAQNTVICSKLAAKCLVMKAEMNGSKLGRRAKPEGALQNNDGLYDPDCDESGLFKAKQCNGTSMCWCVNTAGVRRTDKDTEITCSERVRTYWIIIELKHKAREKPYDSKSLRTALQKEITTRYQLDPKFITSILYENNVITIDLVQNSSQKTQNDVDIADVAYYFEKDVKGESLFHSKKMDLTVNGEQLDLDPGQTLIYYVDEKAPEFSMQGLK
Put plainly: titer of phages bound to EpCAM-immobilized beads (TALON beads; Protein G beads with Vu-1D9), both conditions. The protocol:
(§2) Under Condition 1, each phage (in FIG. 1C, rows 1 and 2 represent the Ep133-displaying phage, rows 3 and 4 represent the Ep301-displaying phage, and rows 5 and 6 represent the phage 447 displaying no peptide) was added at a titer of 1×10¹⁰ to 0.4 mg of TALON® beads immobilized 1 μg of EpCAM (FIG. 1C, rows 1, 3, and 5,indicating with plus sign) or the beads alone (FIG. 1C, rows 2, 4, and 6, indicating with minus sign). After washing with TBST five times, the titers of bound phages were measured.
as §2, with “2, 2.4 μg of anti-EpCAM monoclonal antibody (Vu-1D9, Abcam plc.) was immobilized on Protein G beads, and 3 μg of purified EpCAM was immobilized thereon via the antibody. Each” for “1, each”, “the” for “0.4 mg of TALON®”, “immobilized” for “immobilized 1 μg of”, “5, indicating” for “5,indicating with”, “once,” for “five times,”

The target in experiment [3] is T2, purified EpCAM (extracellular domain …). Put plainly: fluorescence depolarization, FITC-modified peptide. On the procedure: Each FITC-modified EpCAM peptide or control peptide was suspended at a concentration of approximately 100 μM in PBS. After centrifugation, the supernatant was collected and diluted 10-fold, and the absorbance was measured at 495 nm From the measurement value, the molar concentration of the peptide was determined using the formula of Beer-Lambert of the following expression 1: […]
EpCAM is diluted with PBS into several concentrations from 0 until reaching equilibrium (40 nM for the Ep133 peptide), and the FITC-modified peptide whose precise concentration has been measured by the aforementioned method is added to the dilutions thus prepared. The sample was left at a temperature for measurement for 30 minutes or longer and subjected to polarization measurement using a spectrofluorometer FP-6500 (JASCO Corp.) equipped with an automatic polarization measurement unit (JASCO Corp., APH-103). Kd was estimated by curve fitting according to the Hill equation.
The dissociation constants of the EpCAM-binding peptide Ep301 (FIG. 2(D)) disclosed in Patent Literature 2 and Ep301 control (FIG. 2(E)), which was a control peptide derived from Ep301 by the substitution of cysteine at positions 5 and 10 by serine, and a sequence of EpCAM from residue 106 to 119 (FIG. 2(F)) having partial homology to EpCAM-binding peptides were measured similarly.

The target of experiment [4] is T1, EpCAM, whole protein on cells (HT-29, …). Put plainly: staining of HT-29 spheroids with FITC peptide. On the procedure:
as §1
Next, the results of staining using the L3A variant peptide as a control are shown.

The target in experiment [5] is T2, purified EpCAM (extracellular domain …). Put plainly: pull-down of EpCAM on peptide-loaded streptavidin magnetic beads, Western blot. In general terms: A western blot detects proteins with antibodies after separation by electrophoresis.
In experiment [6] the target is T1, EpCAM, whole protein on cells (HT-29, …). As to the kind of experiment: pull-down of HT-29 exosomes on peptide-loaded streptavidin beads, Western blot with anti-EpCAM. On the procedure: 250 μg of streptavidin-magnetic beads (Dynabeads® M-280 streptavidin, VERITAS Corp.) in TBS containing 2% BSA was added to 20 μg of the biotinylated Ep114 peptide and shaken at room temperature for 30 minutes, followed by washing with TBS. Beads reacted without the peptide were used as a control. The anti-Ep114 antibody was added to the beads in TBST and reacted at room temperature for 1 hour. After washing with TBS, the beads were collected. The collected beads were heated at 95° C. for 5 minutes in a SDS sample buffer. After Western-blotting, the anti-Ep114 antibody was detected using HRP-labeled anti-rabbit antibodies.
The binding to exosomes was confirmed using the Western blot system in the similar method as in the preceding paragraph 1. Specifically, 20 μg of the biotinylated Ep114 peptide, the PE183 peptide, the PE184 peptide, or the PE185 peptide was bound to 250 μg of streptavidin-magnetic beads and then reacted with exosomes isolated from HT-29 cells as EpCAM-positive cells, followed by Western blot to detect the exosomes using anti-EpCAM polyclonal antibodies (see the left panel of FIG. 5C).

The target in experiment [7] is T2, purified EpCAM (extracellular domain …). Put plainly: ELISA, biotin peptide on streptavidin plate, purified EpCAM added. The protocol: was immobilized onto an ELISA plate via streptavidin, and purified EpCAM was added thereto in an amount of 0, 10, or 100 ng and reacted. After washing, bound EpCAM was detected using the anti-EpCAM antibody. A biotin-modified peptide PE194 (Ac-[…](biotin)-NH2) of the L3A variant (non-EpCAM-binding variant) was used as a control.

As to KHLQSVRNISWS (also: FITC-labeled, position not given here) [Ep114 control peptide in which cysteine at positions 5 and 10 is substituted by serine], the binding result in experiment [1] was “no binding (tested: 0.4 µM; also 4 µM (data not shown))”.

B1: Ep133-displaying phage (peptide)
chain: EHLHCLGSLCWP
modifications: not fully specified (bridges); cysteine pairing not given here; also: displayed on phage
notes: also called cloned phage displaying Ep133; not shown: fusion and linker not described
Consider B1, for which, in experiment [2], the “fold ability to bind compared with Ep301-displaying phage” value is no less than 10 times.

B2: Ep133 control (peptide)
peptide: EHLHSLGSLSWP
modifications: also: FITC-modified, position not given here
notes: Ep133 with cysteine at positions 5 and 10 substituted by serine
With B2, the binding result is “no binding” in experiment [3] and “no binding (tested: 0.4 µM; also 4 µM (data not shown))” in experiment [1].

B3: L3A variant peptide of Ep114, FITC-labeled (peptide)
peptide: KHAQCVRNICWS
modifications: not fully specified (bridges); cysteine pairing not given here; also: FITC-labeled, position not given here
notes: Free labeled peptide used as a control in cell staining; also called L3A control labeled peptide; control peptide
For the molecule B3, the binding result in experiment [4] was “no binding”.

B4: PE183 peptide (peptide)
peptide: Ac-KHLQCVRNICWSPPPPPPKK(Biotin)-NH2
modifications: not fully specified (bridges); printed as Ac-KHLQCVRNICWSPPPPPPKK(biotin)-NH2; cysteine pairing not given here
With B4, the binding result in experiment [5] and in experiment [6] was “binds” throughout.

On to Ac-KHAQCVRNICWSPPPPPPKK(Biotin)-NH2 (cysteine pairing not given here, L3A control of PE183) [biotin-modified peptide PE194 of the L3A variant], for which, in experiment [7], the binding result was “no binding (tested: 100 ng EpCAM)”.
